Test results reported in article PMC10303687 (2023).

T1: p73_Dr (zebrafish, UniProt A0A8M2BER5)
T1 chain: EGPTFEHLWSTL

T2: p53_Dr (Danio rerio (Zebrafish) (Brachydanio …, UniProt P79734))
T2 chain: DSQEFAELWEKNL

T3: p63_Dr (zebrafish, UniProt E9QG65)
T3 chain: GQDVLNQLLEML

T4: p53_Gg (Gallus gallus (Chicken), UniProt P10360)
T4 chain: EPTEVFMDLWSML

B1: MDM2_Dr (protein)
chain: SQISKVDNEKLVRPKVQLKSLLEDAGADKDVFTMKEVMFYLGKYIMSKELYDKQQQHIVHCGEDPLGAVLGVKSFSVKEPRALFALINRNLVTVK
B2: MDM2_Gg (protein)
chain: SPVSASEQEALVKPKPLLLKLLKLAGAEKDTFTMKEVIFYLGQYIMSKQLYDEKEQHIVHCANDLLGDLFGVTSFSVKEHRRIYSMISRNLIAIN

Legend:
Assay in all cases: stopped flow koff/kon 10 C
p73_Dr = biological target: T1, p73_Dr
p53_Dr = biological target: T2, p53_Dr
p63_Dr = biological target: T3, p63_Dr
p53_Gg = biological target: T4, p53_Gg

Binder | Kd (p73_Dr) [µM] | Kd (p53_Dr) [µM] | Kd (p63_Dr) [µM] | Kd (p53_Gg) [µM]
B1 | 0.12 | 1.9 | 130 | –
B2 | – | – | – | 0.09
